Assay results reported in patent publication US10072252B2 (priority 2013, dated 2018).
Where a chain is given by its changes, count along the chain named. Numbers in names are those of the source. Where “and” joins values, the source holds several entries; their conditions need not be identical. Equal values may be shown once.

Columns and labels:
[1] = target: T1, Sulfolobus solfataricus SsoPox, wild type (wt), SEQ ID NO: 3 (Saccharolobus solfataricus, UniProt Q97VT7)
[2] = target: T2, Sulfolobus solfataricus SsoPox variant W263L, SEQ ID NO: 11 (Saccharolobus solfataricus, UniProt Q97VT7, W263L); format: biochemical
T2 construct: made in house; host or cells: E. coli BL21(DE3)-pGro7/GroEL

[3] = target: T3, Sulfolobus solfataricus SsoPox variant W263M, SEQ ID NO: 9 (Saccharolobus solfataricus, UniProt Q97VT7, W263M); format: biochemical
T3 construct: made in house; host or cells: E. coli BL21(DE3)-pGro7/GroEL

[4] = target: Sulfolobus solfataricus SsoPox variant W263F (of SEQ ID NO: 3) (Saccharolobus solfataricus, UniProt Q97VT7, W263F)
[5] = target: T4, Sulfolobus solfataricus SsoPox variant αsA1 (C258L/I261F/W263A), SEQ ID NO: 21 (Saccharolobus solfataricus, UniProt Q97VT7, C258L/I261F/W263A); format: biochemical; conditions: for Catalytic activity: pH 8
T4 construct: made in house; host or cells: E. coli BL21(DE3)-pGro7/GroEL
T4 sequence (Q97VT7 1-314 C258L/I261F/W263A): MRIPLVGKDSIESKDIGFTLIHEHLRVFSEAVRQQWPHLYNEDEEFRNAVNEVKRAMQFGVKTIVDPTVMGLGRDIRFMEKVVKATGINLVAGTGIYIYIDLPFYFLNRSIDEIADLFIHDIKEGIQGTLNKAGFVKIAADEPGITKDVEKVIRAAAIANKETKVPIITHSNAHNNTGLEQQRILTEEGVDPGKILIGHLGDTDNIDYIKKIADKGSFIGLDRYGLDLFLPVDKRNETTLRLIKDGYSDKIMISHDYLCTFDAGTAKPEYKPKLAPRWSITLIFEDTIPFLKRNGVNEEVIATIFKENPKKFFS

[6] = target: T1, Sulfolobus solfataricus SsoPox, wild type (wt), SEQ ID NO: 3; parameters: made in house; host or cells: E. coli BL21(DE3)-pGro7/GroEL; conditions: pH 8; cited from earlier work
[7] = target: T2, Sulfolobus solfataricus SsoPox variant W263L, SEQ ID NO: 11; format: biochemical; remark: listed apart in the source
[8] = target: Sulfolobus solfataricus SsoPox variant W263T, SEQ ID NO: 19 (Saccharolobus solfataricus, UniProt Q97VT7, W263T)
[9] = target: Sulfolobus solfataricus SsoPox variant W263I, SEQ ID NO: 15 (Saccharolobus solfataricus, UniProt Q97VT7, W263I)
[10] = target: Sulfolobus solfataricus SsoPox variant W263V, SEQ ID NO: 17 (Saccharolobus solfataricus, UniProt Q97VT7, W263V)
[11] = tested on: CCCCCCCCCC(=O)CC(=O)N[C@H]1CCOC1=O; experiment: purified protein, by the assay type; conditions: pH 8.3; 25.0 °C
CCCCCCC1CCCC(=O)O1 = experiment: purified protein, by the assay type; conditions: pH 8.3; 25.0 °C
[12] = tested on: CCCCCCCC(=O)CC(=O)N[C@H]1CCOC1=O; experiment: purified protein, by the assay type; conditions: pH 8.3; 25.0 °C
3-oxo-C12 AHL = format: cell-based, Pseudomonas aeruginosa
[13] = format: physicochemical; conditions: pH 8

For `CCCCCCCC(=O)CC(=O)N[C@H]1CCOC1=O` [3-oxo-C10 AHL], the Enhancement/wt [1] was 1, the kcat/KM [1] was 3.16(±0.40)×10^4 M^−1s^−1 and the “times better substrate / higher catalytic efficiency” value [1] was 10 times. For the same molecule, the Enhancement/wt [2] was 0, the Enhancement/wt [3] was 0 and the Enhancement/wt [4] was 4.4(±1.0) × 10^−1.

In the case of `CCOP(=S)(OCC)Oc1ccc([N+](=O)[O-])cc1` [Ethyl-Parathion, ethyl-parathion], the “Catalytic activity (very low hydrolysis)” value [5] is reported as “VLH”.

For `CCOC(=O)CC(SP(=S)(OC)OC)C(=O)OCC` (centres unmarked) [Malathion, malathion], the Catalytic activity [6] is listed as 5.56 ± 1.26 M⁻¹ s⁻¹ and the Catalytic activity [5] is listed as 3.2 ± 0.7 M⁻¹ s⁻¹.

In the case of `COP(=O)(OC)Oc1ccc([N+](=O)[O-])cc1` [Methyl-paraoxon, methyl-paraoxon], the “catalytic efficiency improvement induced by SDS” value [7] is listed as 5.3 times, the kcat/KM [7] is listed as 3.16(±0.10) × 10^4 M^−1s^−1 and 1.69(±0.04) × 10^5 M^−1s^−1 and the Catalytic activity [6] is listed as 1.27(±0.7) · 10^3 M^−1s^−1. The Catalytic activity [5] was 2.29(±1.09) · 10^4 M^−1s^−1.

For `COP(=S)(OC)Oc1ccc([N+](=O)[O-])cc1` [Methyl-parathion, methyl-parathion], the Km [7] was 168 ± 31 µM, the kcat [7] was 1.22(±0.13) × 10^−1 s^−1 and the kcat/KM [7] was 728 ± 156 M⁻¹ s⁻¹. For the same molecule, the Catalytic activity [6] was 9.09 ± 0.9 M⁻¹ s⁻¹ and the Catalytic activity [5] was 3.68(±0.5) · 10^1 M^−1s^−1.

With `CCCCCCCC1CCC(=O)O1` (centres unmarked) [Undecanoic-γ-lactone, undecanoic-γ-lactone] the Enhancement/wt [8] was 147.9 ± 53.5, the Enhancement/wt [1] was 1 and the kcat/KM [1] was 2.36 (±0.38)×10^3 M^−1s^−1. For the same molecule, the Enhancement/wt [2] was 4.4 ± 1.1, the Enhancement/wt [3] was 5.4 ± 1.3 and the Enhancement/wt [4] was 5.3 ± 1.8. For the same molecule, the Enhancement/wt [9] was 2.3 ± 0.5 and the Enhancement/wt [10] was 1.4 ± 0.4.

In the case of `CCCCCCC1CCCC(=O)O1` (centres unmarked) [Undecanoic-δ-lactone, undecanoic-δ-lactone], the Enhancement/wt [8] is reported as 9.1 ± 3.5, the Enhancement/wt [1] is reported as 1 and the kcat/KM [1] is reported as 6.72(±2.54)×10^4 M^−1s^−1. The “times better substrate / higher catalytic efficiency” value [1] was 10 times, the Enhancement/wt [2] was 3.3 ± 1.2 and the Enhancement/wt [3] was 5.6 ± 2.0. For the same molecule, the Enhancement/wt [4] was 6.3 ± 2.7, the Enhancement/wt [9] was greater than 73.8 ± 17.2 and the kcat ([9]; pH 8.3) was “(5.80 ± 0.74) × 10^1 s^−1”. The kcat/KM ([9]; pH 8.3) was >5.80(±0.74) × 10^6 M^−1s^−1 and the Enhancement/wt [10] was 10.1 ± 3.6.

“Sulfolobus solfataricus SsoPox variant W263A, SEQ ID NO: 13 (Saccharolobus solfataricus P2; W263A)” gave a Km [11] of 1640 ± 170 µM.

In the case of “Sulfolobus solfataricus SsoPox variant W263F (of SEQ ID NO: 3) (Saccharolobus solfataricus P2; W263F)”, the Km [11] is reported as 146 ± 33 µM, the kcat [11] is reported as 0.66 ± 0.03 s⁻¹ and the kcat/Km [11] is reported as 4520 ± 1040 M⁻¹ s⁻¹. For the same molecule, the Km (CCCCCCC1CCCC(=O)O1) was 135.2 ± 52.8 µM, the kcat (CCCCCCC1CCCC(=O)O1) was 66.5 ± 3.2 s⁻¹ and the kcat/Km (CCCCCCC1CCCC(=O)O1) was 492000 ± 193000 M⁻¹ s⁻¹. For the same molecule, the Km [12] was 288 ± 56 µM, the kcat [12] was 3.96 ± 0.18 s⁻¹ and the kcat/Km [12] was 13800 ± 2800 M⁻¹ s⁻¹.

With “Sulfolobus solfataricus SsoPox variant W263I, SEQ ID NO: 15 (Saccharolobus solfataricus P2; W263I)” the Km [11] was 17.8 ± 4.87 µM and 17.8 ± 4.9 µM, the kcat [11] was 2.89 s⁻¹ and 2.89 ± 0.08 s⁻¹ and the Km [12] was 1605 ± 443 µM. The kcat [12] was 0.6 ± 0.09 s⁻¹ and the kcat/Km [12] was 374 ± 117 M⁻¹ s⁻¹.

“Sulfolobus solfataricus SsoPox variant W263T, SEQ ID NO: 19 (Saccharolobus solfataricus P2; W263T)” gave a Km [11] of 137 ± 19 µM, a kcat [11] of 10.4 ± 0.35 s⁻¹ and a kcat/Km [11] of 75600 ± 10800 M⁻¹ s⁻¹. For the same molecule, the Km [12] was 1000 ± 343 µM, the kcat [12] was 0.107 ± 0.016 s⁻¹ and the kcat/Km [12] was 106 ± 40 M⁻¹ s⁻¹.

“Sulfolobus solfataricus SsoPox variant W263V, SEQ ID NO: 17 (Saccharolobus solfataricus P2; W263V)” gave a Km [11] of 24.7 ± 5.2 µM, a kcat [11] of 4.82 ± 0.11 s⁻¹ and a kcat/Km [11] of 195000 ± 44000 M⁻¹ s⁻¹. The Km [12] was 1346 ± 298 µM, the kcat [12] was 0.19 ± 0.009 s⁻¹ and the kcat/Km [12] was 141 ± 32 M⁻¹ s⁻¹.

With “Sulfolobus solfataricus SsoPox, wild type (wt), SEQ ID NO: 3 (Saccharolobus solfataricus P2)” the Km [11] was 335 ± 10.4 µM and 456 ± 128 µM, the Km (CCCCCCC1CCCC(=O)O1) was 94 ± 18 µM and the kcat (CCCCCCC1CCCC(=O)O1) was 7.38 ± 0.28 s⁻¹. It also gave a kcat/Km (CCCCCCC1CCCC(=O)O1) of 78600 ± 15300 M⁻¹ s⁻¹, a Km [12] of 143 ± 15 µM and a kcat [12] of 4.52 ± 0.1 s⁻¹. The kcat/Km [12] was 31600 ± 4000 M⁻¹ s⁻¹.

B1: SsoPox W263A: SEQ ID NO: 3 with substitution of tryptophan W in position 263 by alanine A (protein, listed as Sulfolobus solfataricus)
chain: T4 sequence (Q97VT7 1-314 C258L/I261F/W263A) with L258C, F261I
In the case of B1, the “relative lactonase activity in screening (3-oxo-C12 AHL hydrolysis)” value (from here on “relative lactonase activity in screening”) (3-oxo-C12 AHL) is reported as “selected for a potential lactonase activity improvement”.

B2: SsoPox W263F: SsoPox (SEQ ID NO: 3) with W263F variation (protein, listed as Sulfolobus solfataricus)
chain: T4 sequence (Q97VT7 1-314 C258L/I261F/W263A) with L258C, F261I, A263F
For B2, the melting temperature [13] was 91.8±1.7 °C.

B3: SsoPox wt: wild-type hyperthermophilic PTE of Sulfolobus solfataricus, sequence SEQ ID NO: 3 (protein, listed as Sulfolobus solfataricus)
chain: T4 sequence (Q97VT7 1-314 C258L/I261F/W263A) with L258C, F261I, A263W
Work on B3 yielded a melting temperature [13] of 104 °C.

B4: SsoPox W263T: SEQ ID NO: 3 with substitution of tryptophan W in position 263 by threonine T (protein, listed as Sulfolobus solfataricus)
chain: T4 sequence (Q97VT7 1-314 C258L/I261F/W263A) with L258C, F261I, A263T
In the case of B4, the “relative lactonase activity in screening” value (3-oxo-C12 AHL) is reported as “selected for a potential lactonase activity improvement” and the melting temperature [13] is reported as 89.2±0.4 °C.

B5: SsoPox W263V: SEQ ID NO: 3 with substitution of tryptophan W in position 263 by valine V (protein, listed as Sulfolobus solfataricus)
chain: T4 sequence (Q97VT7 1-314 C258L/I261F/W263A) with L258C, F261I, A263V
For B5, the “relative lactonase activity in screening” value (3-oxo-C12 AHL) was “selected for a potential lactonase activity improvement” and the melting temperature [13] was 84.1±1.6 °C.

B6: SsoPox W263L: SEQ ID NO: 3 with substitution of tryptophan W in position 263 by leucine L (protein, listed as Sulfolobus solfataricus)
chain: T4 sequence (Q97VT7 1-314 C258L/I261F/W263A) with L258C, F261I, A263L
B6 showed a melting temperature [13] of 92.0±2.1 °C.

B7: SsoPox W263M: SEQ ID NO: 3 with substitution of tryptophan W in position 263 by methionine M (protein, listed as Sulfolobus solfataricus)
chain: T4 sequence (Q97VT7 1-314 C258L/I261F/W263A) with L258C, F261I, A263M
Work on B7 yielded a melting temperature [13] of 85.3±0.9 °C.
